Data: patent US20240174741A1

Target: ESYT2_Frag (human) (UniProt A0FGR8)
Assay: CDI HuProt native protein microarray (High-Spec cross-reactivity assay)

B1: CD1-M8 (antibody, V domains shown)
VH: EVQLQQSGPELVKPGASVKMSCKASGYTFTDYYIHWVKQSHGKGLEWIGYIFPNNGGNGYSQKFKGKATMTVDKSSSTAYMELRSLTSEDSAVYYCARGGYDAGFVYWGQGTLVTVSA
VL: DIVMSQSPSSLAVSAGEKVTMSCKSSQSLFNSGARKNFLAWYQQKPGQSPKLLIYWASTRESGVPDRFTGSGSGTDFTLTISSVQAEDLAVYYCKQSYYLITFGAGTKLELK
- F635: 1860
- S-Score: 2.15
- Z-Score: 5.71
